Our source for the Kd values is patent US20250276073A1 (Bicycle, published 2025).

Starred links: 1 amine or outer side, 2 acyl side, 3 side chain; linkers in the order of their positions; H or OH if unused. Positions of bridges follow the written chain, without caps; N, C: chain ends. Non-standard residues stand in square brackets, D forms with d. No end group written: not given here. TATB = O=C(C[*:1])N1CN(C(=O)C[*:2])CN(C(=O)C[*:3])C1; Phe(4-CONH2) = NC(=O)c1ccc(C[C@H](N)C(=O)O)cc1; Phe(4-COOH) = N[C@@H](Cc1ccc(C(=O)O)cc1)C(=O)O; Gla = N[C@@H](CC(C(=O)O)C(=O)O)C(=O)O; Val(3-OH) = CC(C)(O)[C@H](N)C(=O)O; Hyp = O=C(O)[C@@H]1C[C@@H](O)CN1; Tle = CC(C)(C)[C@H](N)C(=O)O

The assay addresses T1, Recombinant human His-tagged TfR1 (a.a. 89-760) (ACRO Biosystems, CD1-H5243) (human, UniProt P02786 89-760).
T1 construct: range 89-760; Bought protein; Captured and amine-coupled on an NTA chip; also called human TfR1; transferrin receptor 1; not shown: His tag (printed 'Hiss-tagged')
The experiment in a line: SPR (Biacore), TfR1 captured/coupled on NTA chip, peptide as analyte.

T1 sequence (P02786 89-760 limits assumed): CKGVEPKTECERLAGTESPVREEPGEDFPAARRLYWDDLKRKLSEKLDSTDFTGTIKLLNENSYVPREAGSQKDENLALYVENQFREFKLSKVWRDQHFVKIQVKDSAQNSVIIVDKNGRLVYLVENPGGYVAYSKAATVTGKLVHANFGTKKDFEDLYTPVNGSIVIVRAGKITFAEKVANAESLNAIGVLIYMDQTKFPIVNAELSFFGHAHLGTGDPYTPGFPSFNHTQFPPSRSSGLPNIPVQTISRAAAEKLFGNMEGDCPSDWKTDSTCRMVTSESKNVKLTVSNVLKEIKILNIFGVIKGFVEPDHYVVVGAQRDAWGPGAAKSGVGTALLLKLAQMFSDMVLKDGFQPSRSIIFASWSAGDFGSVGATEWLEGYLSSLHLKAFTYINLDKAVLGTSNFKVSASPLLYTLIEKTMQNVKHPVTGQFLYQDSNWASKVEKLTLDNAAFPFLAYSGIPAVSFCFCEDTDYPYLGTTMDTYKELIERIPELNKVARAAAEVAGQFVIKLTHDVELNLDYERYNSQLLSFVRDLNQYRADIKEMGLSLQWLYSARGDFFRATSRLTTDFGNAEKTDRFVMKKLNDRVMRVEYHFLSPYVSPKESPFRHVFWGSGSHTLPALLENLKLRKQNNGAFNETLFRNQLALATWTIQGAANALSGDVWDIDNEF

B1: BCY23208 (peptide)
peptide: CPXDAYLGCXSYCEPX
modifications: CP[HyP]DAYLGC[tBuGly]SYCEP[DOPA]: HyP at 3, tBuGly at 10, DOPA at 16; N-terminal acetyl; C-terminal CONH2; Cys 1, 9, 13 bonded to TATB scaffold
notes: Bicyclic peptide
In the case of B1, the equilibrium dissociation constant (Kd) amounted to 6 nM.

B2: BCY23200 (peptide)
peptide: CPXDAYLGCXSXCEPW
modifications: CP[HyP]DAYLGC[tBuGly]S[DOPA]CEPW: HyP at 3, tBuGly at 10, DOPA at 12; N-terminal acetyl; C-terminal CONH2; Cys 1, 9, 13 bonded to TATB scaffold
notes: Bicyclic peptide
Take B2: the Kd was found to be 9.5 nM.

B3: BCY23231 (peptide)
peptide: CPXDAYLGCXSYCXPW
modifications: CP[HyP]DAYLGC[tBuGly]SYC[Gla]PW: HyP at 3, tBuGly at 10, Gla at 14; N-terminal acetyl; C-terminal CONH2; Cys 1, 9, 13 bonded to TATB scaffold
notes: Bicyclic peptide
As to B3, the Kd worked out at 25 nM.

B4: BCY23211 (peptide)
peptide: CPXDAYLGCXSYCEPX
modifications: CP[HyP]DAYLGC[tBuGly]SYCEP[hTyr]: HyP at 3, tBuGly at 10, hTyr at 16; N-terminal acetyl; C-terminal CONH2; Cys 1, 9, 13 bonded to TATB scaffold
notes: Bicyclic peptide
Take B4: the dissociation constant Kd came to 7.7 nM.

B5: BCY23221 (peptide)
peptide: Ac-CP[Hyp]DAYEGC[Tle]SYCEPW-NH2
modifications: linker 1-9-13 via TATB
SMILES: CC(=O)N[C@H]1CSCC(=O)N2CN3CN(C2)C(=O)CSC[C@@H](C(=O)N[C@@H](CCC(=O)O)C(=O)N2CCC[C@H]2C(=O)N[C@@H](Cc2c[nH]c4ccccc24)C(N)=O)NC(=O)[C@H](Cc2ccc(O)cc2)NC(=O)[C@H](CO)NC(=O)[C@H](C(C)(C)C)NC(=O)[C@H](CSCC3=O)NC(=O)CNC(=O)[C@H](CCC(=O)O)NC(=O)[C@H](Cc2ccc(O)cc2)NC(=O)[C@H](C)NC(=O)[C@H](CC(=O)O)NC(=O)[C@@H]2C[C@@H](O)CN2C(=O)[C@@H]2CCCN2C1=O
notes: Bicyclic peptide
For B5, the equilibrium dissociation constant (Kd) came out at 120 nM.

B6: BCY23230 (peptide)
peptide: CPXDAYLGCXSYCDPW
modifications: CP[HyP]DAYLGC[tBuGly]SYCDPW: HyP at 3, tBuGly at 10; N-terminal acetyl; C-terminal CONH2; Cys 1, 9, 13 bonded to TATB scaffold
notes: Bicyclic peptide
As to B6, the Kd was 15 nM.

B7: BCY23223 (peptide)
peptide: CP[Hyp]DAYQGC[Tle]SYCEPW-NH2
modifications: linker 1-9-13 via TATB; not fully specified (N-terminus); printed as CP[HyP]DAYQGC[tBuGly]SYCEPW
notes: Bicyclic peptide
Regarding B7, the dissociation constant Kd worked out at 50 nM.

B8: BCY23222 (peptide)
peptide: Ac-CP[Hyp]DAYNGC[Tle]SYCEPW-NH2
modifications: linker 1-9-13 via TATB
SMILES: CC(=O)N[C@H]1CSCC(=O)N2CN3CN(C2)C(=O)CSC[C@@H](C(=O)N[C@@H](CCC(=O)O)C(=O)N2CCC[C@H]2C(=O)N[C@@H](Cc2c[nH]c4ccccc24)C(N)=O)NC(=O)[C@H](Cc2ccc(O)cc2)NC(=O)[C@H](CO)NC(=O)[C@H](C(C)(C)C)NC(=O)[C@H](CSCC3=O)NC(=O)CNC(=O)[C@H](CC(N)=O)NC(=O)[C@H](Cc2ccc(O)cc2)NC(=O)[C@H](C)NC(=O)[C@H](CC(=O)O)NC(=O)[C@@H]2C[C@@H](O)CN2C(=O)[C@@H]2CCCN2C1=O
notes: Bicyclic peptide
In the case of B8, the Kd worked out at 58 nM.

B9: BCY23185 (peptide)
peptide: CPXDAXLGCXSYCEPW
modifications: CP[HyP]DA[DOPA]LGC[tBuGly]SYCEPW: HyP at 3, DOPA at 6, tBuGly at 10; N-terminal acetyl; C-terminal CONH2; Cys 1, 9, 13 bonded to TATB scaffold
notes: Bicyclic peptide
Regarding B9, the Kd was 12 nM.

B10: BCY23201 (peptide)
peptide: CPXDAYLGCXSXCEPW
modifications: CP[HyP]DAYLGC[tBuGly]S[pCaPhe]CEPW: HyP at 3, tBuGly at 10, pCaPhe at 12; N-terminal acetyl; C-terminal CONH2; Cys 1, 9, 13 bonded to TATB scaffold
notes: Bicyclic peptide
With B10, the dissociation constant (Kd) came to 17 nM.

B11: BCY23515 (peptide)
peptide: Ac-CP[Hyp]DAYLGC[Val(3-OH)]SYCEPW-NH2
modifications: linker 1-9-13 via TATB
SMILES: CC(=O)N[C@H]1CSCC(=O)N2CN3CN(C2)C(=O)CSC[C@@H](C(=O)N[C@@H](CCC(=O)O)C(=O)N2CCC[C@H]2C(=O)N[C@@H](Cc2c[nH]c4ccccc24)C(N)=O)NC(=O)[C@H](Cc2ccc(O)cc2)NC(=O)[C@H](CO)NC(=O)[C@H](C(C)(C)O)NC(=O)[C@H](CSCC3=O)NC(=O)CNC(=O)[C@H](CC(C)C)NC(=O)[C@H](Cc2ccc(O)cc2)NC(=O)[C@H](C)NC(=O)[C@H](CC(=O)O)NC(=O)[C@@H]2C[C@@H](O)CN2C(=O)[C@@H]2CCCN2C1=O
notes: Bicyclic peptide
As for B11, the dissociation constant (Kd) worked out at 85 nM.

B12: BCY23210 (peptide)
peptide: CPXDAYLGCXSYCEPX
modifications: CP[HyP]DAYLGC[tBuGly]SYCEP[pCoPhe]: HyP at 3, tBuGly at 10, pCoPhe at 16; N-terminal acetyl; C-terminal CONH2; Cys 1, 9, 13 bonded to TATB scaffold
notes: Bicyclic peptide
With B12, the Kd amounted to 8.6 nM.

B13: BCY23186 (peptide)
peptide: Ac-CP[Hyp]DA[Phe(4-CONH2)]LGC[Tle]SYCEPW-NH2
modifications: linker 1-9-13 via TATB
SMILES: CC(=O)N[C@H]1CSCC(=O)N2CN3CN(C2)C(=O)CSC[C@@H](C(=O)N[C@@H](CCC(=O)O)C(=O)N2CCC[C@H]2C(=O)N[C@@H](Cc2c[nH]c4ccccc24)C(N)=O)NC(=O)[C@H](Cc2ccc(O)cc2)NC(=O)[C@H](CO)NC(=O)[C@H](C(C)(C)C)NC(=O)[C@H](CSCC3=O)NC(=O)CNC(=O)[C@H](CC(C)C)NC(=O)[C@H](Cc2ccc(C(N)=O)cc2)NC(=O)[C@H](C)NC(=O)[C@H](CC(=O)O)NC(=O)[C@@H]2C[C@@H](O)CN2C(=O)[C@@H]2CCCN2C1=O
notes: Bicyclic peptide
On to B13, for which the equilibrium dissociation constant (Kd) turned out to be 27 nM.

B14: BCY23224 (peptide)
peptide: CPXDAYLGCXXYCEPW
modifications: CP[HyP]DAYLGC[tBuGly][HSer]YCEPW: HyP at 3, tBuGly at 10, HSer at 11; N-terminal acetyl; C-terminal CONH2; Cys 1, 9, 13 bonded to TATB scaffold
notes: Bicyclic peptide
As to B14, the Kd amounted to 1140 nM.

B15: BCY23187 (peptide)
peptide: Ac-CP[Hyp]DA[Phe(4-COOH)]LGC[Tle]SYCEPW-NH2
modifications: linker 1-9-13 via TATB
SMILES: CC(=O)N[C@H]1CSCC(=O)N2CN3CN(C2)C(=O)CSC[C@@H](C(=O)N[C@@H](CCC(=O)O)C(=O)N2CCC[C@H]2C(=O)N[C@@H](Cc2c[nH]c4ccccc24)C(N)=O)NC(=O)[C@H](Cc2ccc(O)cc2)NC(=O)[C@H](CO)NC(=O)[C@H](C(C)(C)C)NC(=O)[C@H](CSCC3=O)NC(=O)CNC(=O)[C@H](CC(C)C)NC(=O)[C@H](Cc2ccc(C(=O)O)cc2)NC(=O)[C@H](C)NC(=O)[C@H](CC(=O)O)NC(=O)[C@@H]2C[C@@H](O)CN2C(=O)[C@@H]2CCCN2C1=O
notes: Bicyclic peptide
For the molecule B15, the equilibrium dissociation constant (Kd) was determined as 38 nM.

B16: BCY23217 (peptide)
peptide: Ac-CP[Hyp][Gla]AYLGC[Tle]SYCEPW-NH2
modifications: linker 1-9-13 via TATB
SMILES: CC(=O)N[C@H]1CSCC(=O)N2CN3CN(C2)C(=O)CSC[C@@H](C(=O)N[C@@H](CCC(=O)O)C(=O)N2CCC[C@H]2C(=O)N[C@@H](Cc2c[nH]c4ccccc24)C(N)=O)NC(=O)[C@H](Cc2ccc(O)cc2)NC(=O)[C@H](CO)NC(=O)[C@H](C(C)(C)C)NC(=O)[C@H](CSCC3=O)NC(=O)CNC(=O)[C@H](CC(C)C)NC(=O)[C@H](Cc2ccc(O)cc2)NC(=O)[C@H](C)NC(=O)[C@H](CC(C(=O)O)C(=O)O)NC(=O)[C@@H]2C[C@@H](O)CN2C(=O)[C@@H]2CCCN2C1=O
notes: Bicyclic peptide
In the case of B16, the Kd worked out at 117 nM.

B17: BCY23188 (peptide)
peptide: CPXDAXLGCXSYCEPW
modifications: CP[HyP]DA[hTyr]LGC[tBuGly]SYCEPW: HyP at 3, hTyr at 6, tBuGly at 10; N-terminal acetyl; C-terminal CONH2; Cys 1, 9, 13 bonded to TATB scaffold
notes: Bicyclic peptide
For the molecule B17, the Kd was found to be 109 nM.

B18: BCY23209 (peptide)
peptide: CPXDAYLGCXSYCEPX
modifications: CP[HyP]DAYLGC[tBuGly]SYCEP[pCaPhe]: HyP at 3, tBuGly at 10, pCaPhe at 16; N-terminal acetyl; C-terminal CONH2; Cys 1, 9, 13 bonded to TATB scaffold
notes: Bicyclic peptide
As to B18, the dissociation constant (Kd) was found to be 5.6 nM.

B19: BCY23182 (peptide)
peptide: CXXDAYLGCXSYCEPW
modifications: C[Cis-HyP][HyP]DAYLGC[tBuGly]SYCEPW: Cis-HyP at 2, HyP at 3, tBuGly at 10; N-terminal acetyl; C-terminal CONH2; Cys 1, 9, 13 bonded to TATB scaffold
notes: Bicyclic peptide
On to B19, for which the Kd amounted to 22 nM.

For orientation: Kd means the concentration at which binding is half-saturated.
